B1: INTS3 (parent)
chain: DLNSKGKKREFRFHPIKETVVEEP

The text below walks through data of the supplement of paper PMC10567573.
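Further: lentivirally expressed fusions sorted by FACS into six bins by GFP to DsRed ratio, PSI derived from sequencing read proportions per bin multiplied by bin number.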

The variants in this data set derive from B1. Briefly: protein stability index of a GFP-peptide fusion (GPS, HEK-293T) (PSI 1-6); higher = more stable. Conditions: c terminus: a fixed tail appended.
Consider DLNSKGKKREQRFHPIKETVVEEP [F11Q], for which the protein stability index was determined as 4.11.

Turning to DLNSKGKKRERRFHPIKETVVEEP [F11R], the protein stability index was found to be 4.28.

Consider DLNSKGKKRENRFHPIKETVVEEP [F11N], for which the protein stability index stood at 4.13.

DLNSKGKKRECRFHPIKETVVEEP [F11C]: the protein stability index came out at 4.47.

For DLNSKGKKREYRFHPIKETVVEEP [F11Y], the protein stability index came to 3.89.

Turning to DLNSKGKKREDRFHPIKETVVEEP [F11D], the protein stability index was 4.88.

As to DLNSKGKKREKRFHPIKETVVEEP [F11K], the protein stability index turned out to be 4.46.

For the variant DLNSKGKKREPRFHPIKETVVEEP [F11P], the protein stability index was determined as 4.39.

DLNSKGKKREWRFHPIKETVVEEP [F11W]: the protein stability index stood at 2.1.

Take DLNSKGKKRETRFHPIKETVVEEP [F11T]: the protein stability index was 4.87.

Consider DLNSKGKKREERFHPIKETVVEEP [F11E], for which the protein stability index is 4.94.

As for DLNVKGKKREFRFHPIKETVVEEP [S4V], the protein stability index worked out at 2.71.

Take DLNWKGKKREFRFHPIKETVVEEP [S4W]: the protein stability index turned out to be 1.92.

Consider DLNYKGKKREFRFHPIKETVVEEP [S4Y], for which the protein stability index is 2.24.

With DLNRKGKKREFRFHPIKETVVEEP [S4R], the protein stability index was determined as 2.23.

With DLNQKGKKREFRFHPIKETVVEEP [S4Q], the protein stability index turned out to be 1.88.

As for DLNPKGKKREFRFHPIKETVVEEP [S4P], the protein stability index is 2.41.

In the case of DLNTKGKKREFRFHPIKETVVEEP [S4T], the protein stability index amounted to 2.49.

With DLNSKGKKRCFRFHPIKETVVEEP [E10C], the protein stability index turned out to be 2.97.

For the variant DLNSKGKKRLFRFHPIKETVVEEP [E10L], the protein stability index turned out to be 1.94.

As for DLNSKGKKRPFRFHPIKETVVEEP [E10P], the protein stability index worked out at 2.55.

As to DLNSKGKKRAFRFHPIKETVVEEP [E10A], the protein stability index is 3.19.

Take DLNSKGKKRSFRFHPIKETVVEEP [E10S]: the protein stability index was 1.65.

DLNSKGKKRVFRFHPIKETVVEEP [E10V]: the protein stability index is 1.3.

Take DLNSKGKKRYFRFHPIKETVVEEP [E10Y]: the protein stability index was determined as 1.49.

DLNSKGKKRQFRFHPIKETVVEEP [E10Q]: the protein stability index was 1.87.

Turning to DLNSKGKKRFFRFHPIKETVVEEP [E10F], the protein stability index worked out at 1.76.

With DLNSKGKKRDFRFHPIKETVVEEP [E10D], the protein stability index stood at 2.7.

Consider DLNSKGKKRWFRFHPIKETVVEEP [E10W], for which the protein stability index came out at 2.1.

For the variant DLNSKGKKRNFRFHPIKETVVEEP [E10N], the protein stability index was determined as 2.58.

For the variant DLNSKGKKRHFRFHPIKETVVEEP [E10H], the protein stability index came to 2.72.

With DLNSKGKKRIFRFHPIKETVVEEP [E10I], the protein stability index was determined as 1.78.

In the case of DLNSKGKKRMFRFHPIKETVVEEP [E10M], the protein stability index amounted to 1.64.

On to DLNSKGKKRRFRFHPIKETVVEEP [E10R], for which the protein stability index stood at 1.96.

Consider DLNSKGKKRKFRFHPIKETVVEEP [E10K], for which the protein stability index came out at 2.88.

With DLNSKGKKRGFRFHPIKETVVEEP [E10G], the protein stability index stood at 2.

For the variant DLNSKGKKRTFRFHPIKETVVEEP [E10T], the protein stability index came out at 1.99.

For the variant DLNSKGKKREFRMHPIKETVVEEP [F13M], the protein stability index stood at 4.25.

Regarding DLNSKGKKREFRQHPIKETVVEEP [F13Q], the protein stability index worked out at 4.5.

As to DLNSKGKKREFRGHPIKETVVEEP [F13G], the protein stability index came out at 4.31.

On to DLNSKGKKREFRCHPIKETVVEEP [F13C], for which the protein stability index stood at 3.94.

Regarding DLNSKGKKREFRWHPIKETVVEEP [F13W], the protein stability index came out at 3.72.

Turning to DLNSKGKKREFRSHPIKETVVEEP [F13S], the protein stability index worked out at 4.27.

With DLNSKGKKREFRHHPIKETVVEEP [F13H], the protein stability index stood at 3.75.

As to DLNSKGKKREFRTHPIKETVVEEP [F13T], the protein stability index is 4.02.

Consider DLNSKGKKREFRIHPIKETVVEEP [F13I], for which the protein stability index was determined as 3.78.

For DLNSKGKKREFRYHPIKETVVEEP [F13Y], the protein stability index amounted to 2.47.

As to DLNSKGKKREFRVHPIKETVVEEP [F13V], the protein stability index is 4.47.

As to DLNSKGKKREFRAHPIKETVVEEP [F13A], the protein stability index came out at 4.44.

For the variant DLNSKGKKREFRPHPIKETVVEEP [F13P], the protein stability index was 4.48.

Regarding DLNSKGKKREFRKHPIKETVVEEP [F13K], the protein stability index was 4.06.

DLNSKGKKREFRNHPIKETVVEEP [F13N]: the protein stability index was 4.65.

Take DLNSKGKKREFRDHPIKETVVEEP [F13D]: the protein stability index was found to be 4.71.

In the case of DLNSKGKKREFRLHPIKETVVEEP [F13L], the protein stability index was 4.78.

Turning to DLNSKGKKREFRRHPIKETVVEEP [F13R], the protein stability index stood at 3.99.

For the variant DLNSKGKKREFREHPIKETVVEEP [F13E], the protein stability index was determined as 4.75.

As to DLNSKGKKREFIFHPIKETVVEEP [R12I], the protein stability index is 3.79.

As to DLNSKGKKREFSFHPIKETVVEEP [R12S], the protein stability index worked out at 4.04.

Regarding DLNSKGKKREFTFHPIKETVVEEP [R12T], the protein stability index turned out to be 4.28.

Take DLNSKGKKREFKFHPIKETVVEEP [R12K]: the protein stability index was 4.11.

DLNSKGKKREFMFHPIKETVVEEP [R12M]: the protein stability index is 4.12.

On to DLNSKGKKREFAFHPIKETVVEEP [R12A], for which the protein stability index turned out to be 4.15.

In the case of DLNSKGKKREFEFHPIKETVVEEP [R12E], the protein stability index turned out to be 4.03.

Consider DLNSKGKKREFDFHPIKETVVEEP [R12D], for which the protein stability index worked out at 4.25.

On to DLNSKGKKREFYFHPIKETVVEEP [R12Y], for which the protein stability index amounted to 4.12.

With DLNSKGKKREFNFHPIKETVVEEP [R12N], the protein stability index was determined as 3.74.

As to DLNSKGKKREFFFHPIKETVVEEP [R12F], the protein stability index was found to be 3.13.

Consider DLNSKGKKREFGFHPIKETVVEEP [R12G], for which the protein stability index was 4.24.

As for DLNSKGKKREFQFHPIKETVVEEP [R12Q], the protein stability index was 4.

As for DLNSKGKKREFWFHPIKETVVEEP [R12W], the protein stability index was 3.02.

Turning to DLNSKGKKREFHFHPIKETVVEEP [R12H], the protein stability index was found to be 4.2.

As for DLNSKGKKREFPFHPIKETVVEEP [R12P], the protein stability index came to 4.07.

Consider DLNSKGKKREFVFHPIKETVVEEP [R12V], for which the protein stability index was determined as 3.55.

Regarding DLNSKGKKREFLFHPIKETVVEEP [R12L], the protein stability index was 3.57.

Regarding DLNSKGKKREFCFHPIKETVVEEP [R12C], the protein stability index stood at 3.99.

Turning to DLNSKGKNREFRFHPIKETVVEEP [K8N], the protein stability index was determined as 2.54.

With DLNSKGKQREFRFHPIKETVVEEP [K8Q], the protein stability index turned out to be 2.77.

Turning to DLNSKGKMREFRFHPIKETVVEEP [K8M], the protein stability index worked out at 1.93.

For the variant DLNSKGKAREFRFHPIKETVVEEP [K8A], the protein stability index is 1.74.

DLNSKGKPREFRFHPIKETVVEEP [K8P]: the protein stability index came to 1.94.

In the case of DLNSKGKGREFRFHPIKETVVEEP [K8G], the protein stability index was found to be 2.08.

For the variant DLNSKGKLREFRFHPIKETVVEEP [K8L], the protein stability index worked out at 1.96.

Take DLNSKGKWREFRFHPIKETVVEEP [K8W]: the protein stability index was 2.27.

Take DLNSKGKHREFRFHPIKETVVEEP [K8H]: the protein stability index is 2.

In the case of DLNSKGKIREFRFHPIKETVVEEP [K8I], the protein stability index came to 2.24.

As for DLNSKGKSREFRFHPIKETVVEEP [K8S], the protein stability index worked out at 2.23.

Consider DLNSKGKTREFRFHPIKETVVEEP [K8T], for which the protein stability index was 2.36.

Take DLNSKGKCREFRFHPIKETVVEEP [K8C]: the protein stability index worked out at 1.98.

For DLNSKGKEREFRFHPIKETVVEEP [K8E], the protein stability index came to 2.93.

With DLNSKGKFREFRFHPIKETVVEEP [K8F], the protein stability index was determined as 2.09.

In the case of DLNSKGKYREFRFHPIKETVVEEP [K8Y], the protein stability index came to 2.27.

Regarding DLNSKGKRREFRFHPIKETVVEEP [K8R], the protein stability index is 1.52.

In the case of DLNSKGKDREFRFHPIKETVVEEP [K8D], the protein stability index came to 3.35.

In the case of DLNSKGKVREFRFHPIKETVVEEP [K8V], the protein stability index was 1.73.
